Tests used:
[1] = biological target: T1, IL-10 receptor 1 (IL-10R1), IL-10R His-tag protein (UniProt Q13651 22-235, limits assumed); assay: BLI (Octet K2), IL-10R His-tag protein on AR2G sensor
T1 construct: not shown: His tag
T1 sequence (looked up): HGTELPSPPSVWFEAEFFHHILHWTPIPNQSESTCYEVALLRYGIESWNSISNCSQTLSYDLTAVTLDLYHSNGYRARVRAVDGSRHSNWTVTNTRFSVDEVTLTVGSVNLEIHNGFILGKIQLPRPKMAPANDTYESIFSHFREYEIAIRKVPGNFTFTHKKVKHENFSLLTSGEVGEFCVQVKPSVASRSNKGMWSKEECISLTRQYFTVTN
Method: (§1) For the analysis, the present inventors attached an IL-10R His-tag protein to a 96-well plate using a Dip and Read™ Amine Reactive 2nd Generation (AR2G) Reagent Kit (forteBio, Cat No. 18-5092). Specifically, 200 μl of D. W. was dispensed into a 96-well plate, and an amine biosensor included in the kit was inserted to perform hydration for 10 minutes. Subsequently, after 200 μl of D. W. was additionally dispensed into a new 96-well plate, EDC and NHS were mixed at 1:1 in an amount of 1/20 of the required sample amount and then diluted with D. W., and 200 μl of the resultant was dispensed into the 96-well plates. Next, the IL-10R His-tag protein was diluted to 10 μg/ml in a 10 mM acetate solution having a pH of 5.0, and then 200 μl of the resultant was added to the 96-well plates. After 200 μl of 1 M ethanolamine was added to the 96-well plates, the biosensor plate and the sample plate were placed in an Octet®-K2 instrument and measured. After the measurement was completed, 200 μl of a 1× kinetics buffer solution was added to the sample plate, and then a baseline was determined.

[2] = biological target: T1, IL-10 receptor 1 (IL-10R1), IL-10R …; assay: BLI (Octet K2), IL-10R His-tag protein on AR2G sensor, fusion protein 62.5 to 1,000 nM
Method: as §1

[3] = biological target: anti-DNP mouse IgE (Sigma); assay: BLI (Octet K2), fusion protein on sensor, anti-DNP mouse IgE as analyte, second test
Method: (§2) Specifically, 200 μl of D. W. was dispensed into a 96-well plate, and then an amine biosensor included in the kit was inserted to perform hydration for 10 minutes. Subsequently, after 200 μl of D. W. was additionally dispensed, EDC and NHS were mixed at 1:1 in an amount of 1/20 of the required sample amount and then diluted with D. W., and 200 μl of the resultant was dispensed into the 96-well plate. Next, the FcεRIα-modified IgG4 Fc protein and the FcεRIα-NTIG-IL-10Vm fusion protein were diluted to 10 μg/ml in a 10 mM acetate solution having a pH of 5.0, and then 200 μl of the resultant was added to the 96-well plate. After 200 μl of 1 M ethanolamine was added to the 96-well plate, the biosensor plate and the sample plate were placed in an Octet®-K2 instrument and measured. After the measurement was completed, 200 μl of a 1× kinetics buffer solution was added to the sample plate, and then a baseline was determined.

[4] = biological target: human IgE; assay: BLI (Octet K2), fusion protein on AR2G sensor, human IgE as analyte
[5] = biological target: anti-DNP mouse IgE (Sigma); assay: BLI (Octet K2), fusion protein on sensor, anti-DNP mouse IgE as analyte, first test
Method: as §2

[6] = biological target: anti-DNP mouse IgE (Sigma); assay: BLI (Octet K2), fusion protein on sensor, anti-DNP mouse IgE as analyte, third test
Method: as §2

[7] = biological target: anti-DNP mouse IgE (Sigma); assay: BLI (Octet K2), fusion protein on AR2G sensor, anti-DNP mouse IgE as analyte, second test
Method: as §2

[8] = biological target: anti-DNP mouse IgE (Sigma); assay: BLI (Octet K2), fusion protein on AR2G sensor, anti-DNP mouse IgE as analyte, first test
Method: as §2

[9] = biological target: anti-DNP mouse IgE (Sigma); assay: cell-based or functional assay
[10] = biological target: anti-DNP mouse IgE (Sigma); assay: BLI (Octet K2), fusion protein on AR2G sensor, anti-DNP mouse IgE as analyte, mean of three tests
Method: as §2

[11] = biological target: anti-DNP mouse IgE (Sigma); assay: BLI (Octet K2), fusion protein on AR2G sensor, anti-DNP mouse IgE as analyte, third test
Method: as §2

[12] = biological target: T2, recombinant human neonatal Fc receptor (rhFcRn, R&D systems) (human, UniProt P55899 24-297; P61769 21-119); assay: SPR, rhFcRn on CM5, analyte in PBST pH 6.0, steady state affinity
T2 construct: Bought reagent; also called recombinant FcRn
T2 sequence (P55899 24-297 limits assumed, chain 1 of 2): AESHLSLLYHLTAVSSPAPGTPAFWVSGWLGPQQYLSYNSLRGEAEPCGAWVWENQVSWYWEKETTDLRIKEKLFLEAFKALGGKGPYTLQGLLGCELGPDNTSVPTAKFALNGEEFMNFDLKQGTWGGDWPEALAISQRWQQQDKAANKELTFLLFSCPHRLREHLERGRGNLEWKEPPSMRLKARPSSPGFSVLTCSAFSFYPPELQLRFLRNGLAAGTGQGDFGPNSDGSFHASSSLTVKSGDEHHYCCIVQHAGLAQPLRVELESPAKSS
T2 sequence (P61769 21-119 limits assumed, chain 2 of 2): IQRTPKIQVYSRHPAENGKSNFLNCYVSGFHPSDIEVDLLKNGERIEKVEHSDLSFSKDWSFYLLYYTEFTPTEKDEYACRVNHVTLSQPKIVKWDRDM
Excerpt: (§3) During the regeneration, a PBS buffer solution having a pH of 7.4 was used.

[13] = biological target: T2, recombinant human neonatal Fc receptor …; assay: SPR, steady state affinity, rhFcRn on chip, pH 6.0
Method: (§4) As the analyzer, Biocore 8K (GE Healthcare, USA) was used, and all reagents used in the analysis were purchased from GE Healthcare. […] The experiment was performed at a flow rate of 30 μl/min at 25° C., an association of an analyte was performed for 60 seconds, and then dissociation was performed for 60 seconds. […] At this time, the buffer solution was replaced with a PBS buffer solution having a pH of 7.4 during regeneration.
as §3

[14] = biological target: T3, FcγRIIa (UniProt P12318 36-218, limits assumed); assay: BLI, single trace with fit; PBS panel as control
T3 sequence (looked up): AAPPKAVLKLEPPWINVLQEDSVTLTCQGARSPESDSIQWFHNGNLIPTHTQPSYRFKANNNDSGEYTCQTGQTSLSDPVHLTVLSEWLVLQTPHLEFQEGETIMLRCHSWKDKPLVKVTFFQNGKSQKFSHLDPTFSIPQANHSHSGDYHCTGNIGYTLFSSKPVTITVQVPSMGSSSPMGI

[15] = biological target: T4, FcγRIIb (UniProt P31994 46-217, limits assumed); assay: BLI, single trace with fit; PBS panel as control
T4 sequence (looked up): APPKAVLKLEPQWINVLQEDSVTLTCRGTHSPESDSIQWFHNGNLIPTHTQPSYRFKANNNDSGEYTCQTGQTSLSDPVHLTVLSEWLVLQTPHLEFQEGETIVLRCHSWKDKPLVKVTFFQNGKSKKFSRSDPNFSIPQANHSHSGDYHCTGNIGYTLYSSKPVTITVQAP

[16] = biological target: FcγRIIIb (UniProt O75015 17-200, limits assumed); assay: BLI, single trace with fit; PBS panel as control
FcγRIIIb, sequence (O75015 17-200 limits assumed): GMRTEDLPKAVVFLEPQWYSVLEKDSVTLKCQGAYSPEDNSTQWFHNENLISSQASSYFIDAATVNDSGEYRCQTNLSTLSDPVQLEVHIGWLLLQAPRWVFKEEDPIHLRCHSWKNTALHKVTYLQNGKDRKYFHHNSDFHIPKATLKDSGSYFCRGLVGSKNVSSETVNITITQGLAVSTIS

[17] = biological target: T5, Fc gamma receptor I (FcγRI) (UniProt P12314 16-288, limits assumed); assay: BLI; concentrations and the immobilised partner are not given
T5 construct: also called FcγR1
T5 sequence (P12314 16-288 limits assumed): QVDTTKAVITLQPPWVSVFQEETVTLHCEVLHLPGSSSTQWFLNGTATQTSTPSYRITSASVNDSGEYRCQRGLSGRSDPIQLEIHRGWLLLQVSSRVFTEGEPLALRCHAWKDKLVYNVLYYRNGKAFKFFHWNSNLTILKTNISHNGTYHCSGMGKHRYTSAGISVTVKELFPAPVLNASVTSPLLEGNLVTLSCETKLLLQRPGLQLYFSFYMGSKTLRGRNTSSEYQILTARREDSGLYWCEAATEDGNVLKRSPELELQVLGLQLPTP

[18] = biological target: T6, Fc gamma receptor IIIa (FcγRIIIa) (UniProt P08637 17-208, limits assumed); assay: as above
T6 construct: also called FcγR3a
T6 sequence (P08637 17-208 limits assumed): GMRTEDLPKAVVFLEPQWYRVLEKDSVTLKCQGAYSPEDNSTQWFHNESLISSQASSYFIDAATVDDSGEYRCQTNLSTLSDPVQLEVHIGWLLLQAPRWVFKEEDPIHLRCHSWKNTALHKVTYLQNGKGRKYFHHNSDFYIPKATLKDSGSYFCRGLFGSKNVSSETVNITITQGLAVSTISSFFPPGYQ

[19] = biological target: T2, recombinant human neonatal Fc receptor …; assay: SPR (Biacore 8K), rhFcRn amine-coupled on CM5, analyte in PBST pH 6.0, steady state affinity
Method: as §4

[20] = biological target: T7, complement C1q (UniProt P02745 23-245; P02746 28-253; P02747 29-245); assay: ELISA, PG-11 coated at 2 µg/ml, C1q in varied concentration, OD 450 nm
T7 construct: the method text names a C1q-HRP conjugate; also called C1q-HRP conjugate
T7 sequence (P02745 23-245 limits assumed, chain 1 of 3): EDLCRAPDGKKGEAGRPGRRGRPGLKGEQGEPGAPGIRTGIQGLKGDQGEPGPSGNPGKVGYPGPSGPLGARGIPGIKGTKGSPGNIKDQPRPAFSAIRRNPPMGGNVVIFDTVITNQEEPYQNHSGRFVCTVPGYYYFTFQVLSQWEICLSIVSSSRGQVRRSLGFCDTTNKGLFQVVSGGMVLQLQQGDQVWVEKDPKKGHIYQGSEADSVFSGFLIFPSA
T7 sequence (P02746 28-253 limits assumed, chain 2 of 3): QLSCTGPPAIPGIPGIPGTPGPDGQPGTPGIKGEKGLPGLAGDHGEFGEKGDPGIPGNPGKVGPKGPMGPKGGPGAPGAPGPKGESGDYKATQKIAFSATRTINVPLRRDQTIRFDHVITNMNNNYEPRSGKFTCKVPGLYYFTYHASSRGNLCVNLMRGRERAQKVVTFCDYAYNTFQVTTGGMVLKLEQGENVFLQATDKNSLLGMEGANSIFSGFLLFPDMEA
T7 sequence (P02747 29-245 limits assumed, chain 3 of 3): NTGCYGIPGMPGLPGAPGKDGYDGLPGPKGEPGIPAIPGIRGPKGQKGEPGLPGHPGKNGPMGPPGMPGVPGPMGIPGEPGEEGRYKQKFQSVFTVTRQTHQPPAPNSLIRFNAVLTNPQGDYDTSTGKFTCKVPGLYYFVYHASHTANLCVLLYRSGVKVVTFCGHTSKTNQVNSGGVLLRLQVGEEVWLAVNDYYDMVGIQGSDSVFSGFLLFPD
Method: Subsequently, 100 μl of each diluted sample was loaded into each well and reacted overnight at 4° C. Next, washing was performed three times by adding 300 μl of a washing buffer solution to the plate each time, 200 μl of a blocking buffer solution (2% BSA/PBS) was added to each well and reacted at room temperature for 2 hours. 300 μl of the washing buffer solution was added to the plate, then washing was repeatedly performed three times, an anti-C1q antibody was diluted with an assay buffer solution to 10, 3, 1, 0.3, and 0.1 μg/ml by ⅓, and mixed (duplication) in an amount of 50 μl in each well, and then the resultant was reacted at room temperature for 2 hours. Then, the washing buffer solution was mixed in the plate by 300 μl each time and washing was repeatedly performed eight times. A C1q-HRP conjugate was diluted 400-fold, and 50 μl of the resultant was added to each well and reacted at room temperature for 1 hour. The washing buffer solution was added to the plate by 300 μl each time, washing was repeatedly performed eight times, 50 μl of TMB as a substrate was mixed, and the resultant was reacted at room temperature. When the color development reaction appeared in blue, 50 μl of a stop solution was added to each well to stop the reaction, and then optical density was measured using a microplate reader set at 450 nm.

B1: PG-088m (NTIG-IL-10Vm) (Fc fusion)
chain: SHTQPLGVFLFPPKPKDQLMISRTPEVTCVVVDVSQEDPEVQFNWYVDGVEVHNAKTKPREEQFNSTYRVVSVLTVLHQDWLNGKEYKCKVSNKGLPSSIEKTISKAKGQPREPQVYTLPPSQEEMTKNQVSLTCLVKGFYPSDIAVEWESNGQPENNYKTTPPVLDSDGSFFLYSRLTVDKSRWQEGNVFSCSVLHEALHNHYTQKSLSLSLGAAGSGGGGGSGGGGSGGGGSSPGQGTQSENSCTHFPGNLPNMLRDLRDAFSRVKTFFQMKDQLDNLLLKESLLEDFKGYLGCQALSEMIQFYLEEVMPQAENQDPDAKAHVNSLGENLKTLRLRLRRCHRFLPCENGGSGGSGGSKSKAVEQVKNAFNKLQEKGIYKAMSEFDIFINYIEAYMTMKIRN
notes: also called monomeric IL-10 variant fusion protein
fold KD against the dimeric IL-10 fusion protein of Example 2-3 [1]: ~3 fold | koff [1]: 0.0006 s⁻¹ | kon [1]: 20600 M⁻¹ s⁻¹ | Kd [2]: 29.2 nM

B2: PG-110 (FcεRIα-NTIG-IL-10Vm) (Fc fusion)
chain: VPQKPKVSLNPPWNRIFKGENVTLTCNGNNFFEVSSTKWFHNGSLSEETNSSLNIVNAKFEDSGEYKCQHQQVNESEPVYLEVFSDWLLLQASAEVVMEGQPLFLRCHGWRNWDVYKVIYYKDGEALKYWYENHNISITNATVEDSGTYYCTGKVWQLDYESEPLNITVIKAPREKYWLQGGGGSGGGGSGGGGSEPKSSDKTHTCPPCPSHTQPLGVFLFPPKPKDQLMISRTPEVTCVVVDVSQEDPEVQFNWYVDGVEVHNAKTKPREEQFNSTYRVVSVLTVLHQDWLNGKEYKCKVSNKGLPSSIEKTISKAKGQPREPQVYTLPPSQEEMTKNQVSLTCLVKGFYPSDIAVEWESNGQPENNYKTTPPVLDSDGSFFLYSRLTVDKSRWQEGNVFSCSVLHEALHNHYTQKSLSLSLGAAGSGGGGGSGGGGSGGGGSSPGQGTQSENSCTHFPGNLPNMLRDLRDAFSRVKTFFQMKDQLDNLLLKESLLEDFKGYLGCQALSEMIQFYLEEVMPQAENQDPDAKAHVNSLGENLKTLRLRLRRCHRFLPCENGGSGGSGGSKSKAVEQVKNAFNKLQEKGIYKAMSEFDIFINYIEAYMTMKIRN
notes: Produced in a CHO DG44 cell line
koff [3]: 4.06e-05 s⁻¹ | kon [3]: 144000 M⁻¹ s⁻¹ | Kd [4]: 0.346 nM | koff [4]: 7.59e-05 s⁻¹ | kon [4]: 219000 M⁻¹ s⁻¹ | koff [5]: 3.4e-05 s⁻¹ | kon [5]: 152000 M⁻¹ s⁻¹ | koff [6]: 4.82e-05 s⁻¹ | kon [6]: 139000 M⁻¹ s⁻¹ | Kd [7]: 0.282 nM | Kd [8]: 0.224 nM | IC50 (nM), β-hexosaminidase release from mouse marrow-derived mast cells, column headed 'Fourth test' (equals the mean of the three tests) [9]: 16.9 nM | IC50 (nM), β-hexosaminidase release from mouse marrow-derived mast cells, first test [9]: 21.6 nM | IC50 (nM), β-hexosaminidase release from mouse marrow-derived mast cells, second test [9]: 14.8 nM | IC50 (nM), β-hexosaminidase release from mouse marrow-derived mast cells, third test [9]: 14.4 nM | Kd [10]: 0.284 nM | Kd [11]: 0.346 nM

B3: PG-11 (GLP-1E-NTIG) (Fc fusion)
chain: HGEGTFTSDVSSYLEGQAAKEFIAWLVKGGPSSGAPPPSGGGGSGGGGSGGGGSEKEKEEQEERTHTCPPCPSHTQPLGVFLFPPKPKDQLMISRTPEVTCVVVDVSQEDPEVQFNWYVDGVEVHNAKTKPREEQFNSTYRVVSVLTVLHQDWLNGKEYKCKVSNKGLPSSIEKTISKAKGQPREPQVYTLPPSQEEMTKNQVSLTCLVKGFYPSDIAVEWESNGQPENNYKTTPPVLDSDGSFFLYSRLTVDKSRWQEGNVFSCSVLHEALHNHYTQKSLSLSLGK
notes: Produced in ExpiCHO and purified on protein A. The hinge is said in general to dimerise the fusion, but no copy number is stated for PG-11; also called PG-II
Kd [12]: 256 nM | fold affinity against Rituximab [13]: ~9.3 fold | fold affinity against Trulicity [13]: ~5.3 fold | binding result [14]: no binding | binding result [15]: no binding | binding result [16]: no binding | binding result [17]: no binding | binding result [18]: no binding | Kd [19]: 397 nM | binding result [20]: no binding (tested: 10.0 µg/mL)

B4: PG-088 (NTIG-IL-10V) (Fc fusion)
chain: GGGGSGGGGSGGGGSEPKSSDKTHTCPPCPSHTQPLGVFLFPPKPKDQLMISRTPEVTCVVVDVSQEDPEVQFNWYVDGVEVHNAKTKPREEQFNSTYRVVSVLTVLHQDWLNGKEYKCKVSNKGLPSSIEKTISKAKGQPREPQVYTLPPSQEEMTKNQVSLTCLVKGFYPSDIAVEWESNGQPENNYKTTPPVLDSDGSFFLYSRLTVDKSRWQEGNVFSCSVLHEALHNHYTQKSLSLSLGKAAGSGGGGGSGGGGSGGGGSSPGQGTQSENSCTHFPGNLPNMLRDLRDAFSRVKTFFQMKDQLDNLLLKESLLEDFKGYLGCQALSEMIQFYLEEVMPQAENQDPDAKAHVNSLGENLKTLRLRLRRCHRFLPCENKSKAVEQVKNAFNKLQEKGIYKAMSEFDIFINYIEAYMTMKIRN
notes: also called dimeric IL-10 variant fusion protein
koff [1]: 0.0008 s⁻¹ | kon [1]: 71100 M⁻¹ s⁻¹ | Kd [2]: 11.1 nM
